Consider 7 molecules from patent US20200270588A1, “GLUCOSYL TRANSFERASE POLYPEPTIDES AND METHODS OF USE” (Syngenta Participations AG, priority 2017, published 2020).

Series [1] concerns CN1CC(O)N(c2cc(C(F)(F)F)ccn2)C1=O. Description: UDP-Glo glucosyl transferase assay, purified enzyme. The class given is biochemical, Zea mays. Particulars: other: DMSO reagent blank as control, pH 7.5.
Series [2] concerns CON1C(=O)N(c2cc(C(F)(F)F)c(Cl)cn2)C(O)C1C. Described as above. The format is biochemical, Zea mays. Particulars: other: control = inactive H24A mutant of bx9 (asterisk), pH 7.5.
Series [3] concerns Cc1cnc(N2C(=O)N(C)CC2O)cc1C(F)(F)F. The series is described as above. The note with it: other: control = inactive H24A mutant of bx9 (asterisk), pH 7.5. The format is biochemical, Zea mays.
Series [4] relates to CN1CC(O)N(c2cc(C(F)(F)F)c(Cl)cn2)C1=O. Described as above. The format is biochemical, Zea mays. Particulars: other: control = inactive H24A mutant of bx9 (asterisk), pH 7.5.
The nature of series [5]: LC/MS plate assay of crude E. coli extracts, Zea mays bx8 derivatives, herbicide V. The format is biochemical. The note with it: for activity with herbicide V: LC/MS; for activity relative to like-expressed Zea mays bx9 w/t extract: herbicide V, LC/MS peaks, estimate. As for the experimental part:
In an alternative method for assaying the various enzymes, the test glucosyl transferase enzyme is reacted with substrates exactly as above except that the assay is stopped by adding an equal volume of acetonitrile. Alternatively 50 or 100 μl samples from assay reactions are added to 500 μl ethyl acetate to stop the reaction. In this case samples are then vortexed and 400 μl of the ethyl acetate partition removed, dried down, and resuspended in 100 μl 80:20 acetonitrile/water. The formation of product gluco side and/or disappearance of substrate test herbicide is then monitored directly by LC/MS. Samples are analyzed by LC-MS using an Agilent 1290 liquid chromatography system and Thermo Q-Exactive mass spectrometer. The chromatography is achieved on a Waters Acquity C18 BEH (50×2.1 mm) 1.7 μm particle size column, using a 6 minute gradient run of Water (0.2% formic acid) and Acetonitrile. The Q-Exactive is operated in positive ionisation electrospray mode, using Full scan-AIF mode, at 35,000 resolution, between 100-800 m/z. All analytes are identified from the full scan data to within at least 5 ppm accuracy of their predicted pseudo-molecular ion [M+H]^+ m/z value. In order to obtain quantitative data standard curves are run using herbicides and herbicide glucosides synthesized as standards. Where these synthetic glucosides were not available the LC/MS assay could only be used to provide relative data.
The glucosyl transferase activities of the mutant bx8-derived polypeptides expressed in these strains were initially assayed versus herbicide V as described in Example 1. The partly purified C-terminally his tagged w/t bx8 enzyme (SEQ ID No: 2) catalyzed glucosyl transfer to herbicide V at a low rate estimated to be less than about 0.002/s at 1 mM herbicide V which, because of a relatively high background of UDP formation in the DMSO (no substrate reagent control) was difficult to quantify using the luminescence assay. Thus further assays were run by LC/MS using which technique the formation of an O-beta glucosyl glucoside of herbicide V could more easily be confirmed but only quantified in a relative sense. Thus the various derivatives of C-terminally his tagged Zea mays bx8 SEQ ID No:2 were cloned and expressed in E. coli BL21 (DE3) as described in Example 1 and assayed in plates as crude extracts, as in Example 2, but monitored by LCMS rather than the luminescence assay.
The different stereoisomer standards chromatographed distinctly on LC (FIGS. 8A-8H). By comparing the LC elution profiles of the standards with the enzyme products at the correct mass it was possible to characterize which polypeptides catalyzed the formation of which O-glucosides. Assay samples and glucoside conjugate standards are run using the identical chromatographic conditions to allow us to identify the conjugate isomer formed in the assay. In short, as would be expected for inverting glucosyl transferases all of the bx enzymes tested produced beta glucoside products (from the alpha-UDP-glucose substrate) from all herbicides tested. But there can be subtle variations between enzymes in stereochemistry of the products made at other chiral centers.

In the case of “SEQ ID NO 21, mutant of Zea mays bx9 glucosyl transferase (Zea mays; A334K/F21Y/L194V/M279F/S117V)”, in series [1], the Km (commonly the substrate concentration at which the rate is half of its maximum) is 57.3 µM; the kcat (in general, the number of substrate molecules converted per active site and unit of time at saturation) came to 1.86 s⁻¹; the kcat/Km – broadly, the turnover number divided by the Michaelis constant – worked out at 32500 M⁻¹ s⁻¹.
As to “SEQ ID NO 22, mutant of Zea mays bx9 glucosyl transferase (Zea mays; A334K/F21Y/M279F/S117V/T220P)”, the Km in series [2] turned out to be 20 µM; in series [3], 200 µM; in series [1], 14.7 µM; in series [4] it was 320 µM. The kcat in series [2] amounted to 1.68 s⁻¹; in series [3] it was 1.16 s⁻¹; in series [1], 1.32 s⁻¹; in series [4] it was 0.8 s⁻¹. In addition, the kcat/Km in series [2] was 68900 M⁻¹ s⁻¹; in series [3], 5950 M⁻¹ s⁻¹; in series [1], 89700 M⁻¹ s⁻¹; in series [4] it was 2500 M⁻¹ s⁻¹.

B1: V367I, H376C: double mutant of Zea mays bx8 (protein)
chain: MAASCGGRVVVFPFPFQGHFNPVMRLARALHARGVGITVFHTAGARAPDPADYPADYRFVPVPVEVAPELMASEDIAAIVTALNAACEAPFRDRLSALLSAADGEAGEAGGRVRCVLTDVSWDAVLSAARGLGVPALGVMTASAATFRVYMAYRTLVDKGYLPVREERKDDAVAELPPYRVKDLLRHETCDLEEFADLLGRVIAAARLSSGLIFHTFPFIEAGTLGEIRDDMSVPVYAVAPLNKLVPAATASLHGEVQADRGCLRWLDAQRARSVLYVSFGSMAAMDPHEFVELAWGLADAGRPFVWVVRPNLIRGFESGALPDGVEDRVRGRGVVVSWAPQEEVLAHPAVGGFFTHCGWNSTVEAISEGVPMICCPRHGDQYGNARYVCHVWKVGTEVAGDQLERGEIKAAIDRLMGGSEEGEGIRKRMNELKIAADKGIDESAGSDLTNLVHLINSY
modifications: Mutated Zea mays Bx8 protein sequence
As to B1, the “activity with herbicide V” value in series [5] is recorded as “detectable activity”.

B2: E256V, R265Q: double mutant of Zea mays bx8 (protein)
chain: MAASCGGRVVVFPFPFQGHFNPVMRLARALHARGVGITVFHTAGARAPDPADYPADYRFVPVPVEVAPELMASEDIAAIVTALNAACEAPFRDRLSALLSAADGEAGEAGGRVRCVLTDVSWDAVLSAARGLGVPALGVMTASAATFRVYMAYRTLVDKGYLPVREERKDDAVAELPPYRVKDLLRHETCDLEEFADLLGRVIAAARLSSGLIFHTFPFIEAGTLGEIRDDMSVPVYAVAPLNKLVPAATASLHGVVQADRGCLQWLDAQRARSVLYVSFGSMAAMDPHEFVELAWGLADAGRPFVWVVRPNLIRGFESGALPDGVEDRVRGRGVVVSWAPQEEVLAHPAVGGFFTHCGWNSTVEAVSEGVPMICHPRHGDQYGNARYVCHVWKVGTEVAGDQLERGEIKAAIDRLMGGSEEGEGIRKRMNELKIAADKGIDESAGSDLTNLVHLINSY
modifications: Mutated Zea mays Bx8 protein sequence
With B2, in series [5], the “activity with herbicide V” value is recorded as “detectable activity”.

B3: D170E, A72P, A174P: triple mutant of Zea mays bx8 (protein)
chain: MAASCGGRVVVFPFPFQGHFNPVMRLARALHARGVGITVFHTAGARAPDPADYPADYRFVPVPVEVAPELMPSEDIAAIVTALNAACEAPFRDRLSALLSAADGEAGEAGGRVRCVLTDVSWDAVLSAARGLGVPALGVMTASAATFRVYMAYRTLVDKGYLPVREERKEDAVPELPPYRVKDLLRHETCDLEEFADLLGRVIAAARLSSGLIFHTFPFIEAGTLGEIRDDMSVPVYAVAPLNKLVPAATASLHGEVQADRGCLRWLDAQRARSVLYVSFGSMAAMDPHEFVELAWGLADAGRPFVWVVRPNLIRGFESGALPDGVEDRVRGRGVVVSWAPQEEVLAHPAVGGFFTHCGWNSTVEAVSEGVPMICHPRHGDQYGNARYVCHVWKVGTEVAGDQLERGEIKAAIDRLMGGSEEGEGIRKRMNELKIAADKGIDESAGSDLTNLVHLINSY
modifications: Mutated Zea mays Bx8 protein sequence
For B3, the “activity with herbicide V” value in series [5] is reported as “detectable activity”.

B4: SEQ ID NO: 50: zmBX8/zmBX9 hybrid polypeptide (protein)
chain: MAASCGGRVVVFPFPFQGHFNPVMRLARALHARGVGITVFHTAGARAPDPADYPADYRFVPVPVEVAPELMASEDIAAIVTALNAACEAPFRDRLSALLSAADGEAGEAGGRVRCVLTDVSWDAVLSAARGLGVPALGVMTASAATFRVYMAYRTLVDKGYLPVREERKDDAVAELPPYRVKDLLRHETCDLEEFADLLGRVIAAARLSSGLIFHTFPFIEAGTLGEIRDDMSVPVYAVAPLNKLVPAATASLHGEVQADRGCLRWLDAQRARSVLYVSFGSMAAMDPHEFVELAWGLADAGRPFVWVVRPNLIRGFESGALPDGVEDRVRGRGVVVSWAPQEEVLAHPAVGGFFTHCGWNSTVEAISEGVPMVCCPRHGDQFGNMRYVCDVWKVGTELVGEQLERGQVKAAIDRLFGTKEGEEIKERMKEFKIAAAKGIGIGVDVDETASPRTDLTDLVDLIKSF
modifications: Hybrid sequence between Zea mays Bx8 and Bx9 sequences
notes: zmBX8/zmBX9 hybrid polypeptide
As to B4, in series [5], the “activity with herbicide V” value was “active” and the “activity relative to like-expressed Zea mays bx9 w/t extract” value is given as “about a third to a half”. Moreover, the “activity relative to like-expressed Zea mays bx9 w/t extract” value in series [5] (listed as 50) is listed as “up to about half”.

B5: SEQ ID NO: 51: zmBX8/zmBX9 hybrid polypeptide (bx8/bx9 hybrid 2) (protein)
chain: MAASCGGRVVVFPFPFQGHFNPVMRLARALHARGVGITVFHTAGARAPDPADYPADYRFVPVPVEVAPELMASEDIAAIVTALNAACEAPFRDRLSALLSAADGEAGEAGGRVRCVLTDVSWDAVLSAARGLGVPALGVMTASAATFRVYMAYRTLVDKGYLPVREERKDDAVAELPPYRVKDLLRHETCDLEEFADLLGRVIAAARLSSGLIFHTFPFIEAGTLGEIRDDMSVPVYAVAPLNKLVPAATASLHGEVQADRGCLRWLDAQRARSVLYVSFGSMAAMDPHEFVELAWGLADAGRPFVWVVRPNLIRGFESGALPDGVEDRVRGRGVVVSWAPQEEVLAHPAVGGFFTHCGWNSTVEAVSEGVPMICHPRHGDQFGNMRYVCDVWKVGTELVGEQLERGQVKAAIDRLFGTKEGEEIKERMKEFKIAAAKGIGIGVDVDETASPRTDLTDLVDLIKSF
modifications: Hybrid sequence between Zea mays Bx8 and Bx9 sequences
As to B5, the “activity with herbicide V” value in series [5] was “active”.
